Reference: the supplement of paper PMC10126150
± gives the standard deviation of the averaged measurements.

System: ATP
Assay: switch fluorescence ratio, 500 uM ATP over buffer (Cy3 cluster intensity, sum of 5 cycles each) (fold (ratio)); higher = stronger signal-on switching upon ATP binding; sequences stand for … in TCGTCGGCAGCGTCAGATGTGTATAAGAGACAGTTTTTTTTTTTTTTTTTTTTTTTTT…TC
Conditions: aptamer strand: ATP DNA aptamer (quencher-CACCTGGGGGAGTATTGCGGAGGAAGG + anchor), 100 nM annealed; ATP concentration: 500 uM
Procedure, shortened: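 The fluorescence ratio divides summed target-cycle Cy3 intensity by summed buffer-cycle Cy3 intensity for each cluster and is averaged per switch-domain sequence. Cy3-labelled switching-strand clusters on a modified Illumina MiSeq flow-cell were annealed to 100 nM quencher-labelled ATP aptamer, then imaged in selection buffer and again after 15 min with 500 uM ATP at 22 °C. Five such cycles were run, with NaOH stripping and re-annealing between them, and clusters outside 100-1000 RFU were excluded.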
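Further: ATP exposure 15 min at 22 °C before imaging.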

Sequence | switch fluorescence ratio
GGGGCGTGCG | 1.01 ± 0.02
GGGGCGTTGG | 0.993 ± 0.033
GGGGCGTTTG | 0.961 ± 0.057
GGGGCTACTT | 1.02 ± 0.013
GGGGCTATCA | 0.9712 ± 0.0081
GGGGCTATCT | 1.33 ± 0.42
GGGGCTATGG | 1.02 ± 0.045
GGGGCTCATG | 0.99 ± 0.014
GGGGCTCTCG | 0.99 ± 0.012
GGGGCTTAAA | 1.04 ± 0.047
GGGGCTTAGC | 1.02 ± 0.046
GGGGCTTGGT | 1.01 ± 0.034
GGGGGAAGAA | 1 ± 0.028
GGGGGAAGCC | 0.98 ± 0.024
GGGGGAATAC | 2.26 ± 0.5
GGGGGACCGT | 1.01 ± 0.024
GGGGGACGAC | 0.969 ± 0.035
GGGGGACTCT | 0.986 ± 0.041
GGGGGACTGA | 0.991 ± 0.03
GGGGGACTGC | 1.01 ± 0.048
GGGGGAGACG | 1.03 ± 0.075
GGGGGAGATG | 0.992 ± 0.028
GGGGGAGCGG | 0.992 ± 0.033

Sequence | switch fluorescence ratio
GGGGGAGGTG | 1.03 ± 0.048
GGGGGAGTCT | 1.11 ± 0.087
GGGGGAGTGC | 1.06 ± 0.12
GGGGGAGTTT | 1.01 ± 0.011
GGGGGATCCG | 0.983 ± 0.019
GGGGGATGTG | 1.012 ± 0.004
GGGGGATTGC | 1.02 ± 0.066
GGGGGCACGT | 1.017 ± 0.0074
GGGGGCAGAT | 0.97 ± 0.018
GGGGGCAGGG | 0.998 ± 0.065
GGGGGCATTA | 0.999 ± 0.016
GGGGGCCAGC | 1.01 ± 0.02
GGGGGCCCCA | 1.01 ± 0.022
GGGGGCCCGG | 1.03 ± 0.045
GGGGGCGCCA | 1.02 ± 0.02
GGGGGCGGTT | 1.02 ± 0.026
GGGGGCTGCG | 1.04 ± 0.051
GGGGGGAAGC | 1.04 ± 0.064
GGGGGGAGCT | 1.02 ± 0.057
GGGGGGAGGG | 1 ± 0.052
GGGGGGAGTA | 1.01 ± 0.056
GGGGGGCCGG | 0.996 ± 0.033
GGGGGGCGAG | 0.9864 ± 0.0052

Sequence | switch fluorescence ratio
GGGGGGCGGA | 1.01 ± 0.039
GGGGGGCGTC | 1.02 ± 0.016
GGGGGGCTTT | 0.986 ± 0.022
GGGGGGGAGC | 1.01 ± 0.033
GGGGGGGATG | 0.991 ± 0.029
GGGGGGGGAA | 1.01 ± 0.063
GGGGGGGGAT | 1.01 ± 0.029
GGGGGGGGTG | 1.02 ± 0.068
GGGGGGGGTT | 1 ± 0.042
GGGGGGGTGT | 1.01 ± 0.05
GGGGGGTAAT | 1.01 ± 0.026
GGGGGGTACA | 1.01 ± 0.047
GGGGGGTAGC | 0.9761 ± 0.0061
GGGGGGTATA | 1 ± 0.048
GGGGGGTCCG | 1.01 ± 0.074
GGGGGGTCCT | 1 ± 0.018
GGGGGGTCGG | 1 ± 0.024
GGGGGGTCTG | 1 ± 0.037
GGGGGGTGAA | 1.02 ± 0.012
GGGGGGTGAC | 1 ± 0.035
GGGGGGTGGA | 1.01 ± 0.028
GGGGGGTGGT | 0.978 ± 0.025
GGGGGGTTCA | 1.01 ± 0.026

Sequence | switch fluorescence ratio
GGGGGGTTCG | 0.978 ± 0.021
GGGGGTACTA | 0.96 ± 0.019
GGGGGTCCTC | 1.001 ± 0.01
GGGGGTCGTT | 1.02 ± 0.051
GGGGGTGAAG | 0.971 ± 0.016
GGGGGTGTGT | 1.01 ± 0.035
GGGGGTTCGG | 0.992 ± 0.021
GGGGGTTGTA | 0.978 ± 0.054
GGGGGTTTGT | 0.983 ± 0.011
GGGGTAAGAT | 0.963 ± 0.054
GGGGTACGTG | 1 ± 0.029
GGGGTACTTG | 1.01 ± 0.02
GGGGTAGAGG | 0.977 ± 0.015
GGGGTAGATC | 1.05 ± 0.013
GGGGTAGGCC | 0.995 ± 0.018
GGGGTAGGGG | 1.01 ± 0.026
GGGGTAGTGC | 0.998 ± 0.015
GGGGTATACC | 0.956 ± 0.021
GGGGTATAGT | 0.98 ± 0.021
GGGGTATCGG | 0.9828 ± 0.0085
GGGGTATTCT | 1.01 ± 0.013
GGGGTCAGAT | 0.986 ± 0.051
GGGGTCATGT | 1.03 ± 0.015

Sequence | switch fluorescence ratio
GGGGTCATTG | 0.988 ± 0.023
GGGGTCGTTG | 0.995 ± 0.017
GGGGTCTAGT | 1.01 ± 0.026
GGGGTCTTCC | 1.07 ± 0.041
GGGGTGAAGG | 1.01 ± 0.025
GGGGTGAAGT | 1.04 ± 0.017
GGGGTGACTG | 1.05 ± 0.048
GGGGTGCAGC | 1.05 ± 0.02
GGGGTGCAGT | 0.992 ± 0.022
GGGGTGCCCA | 0.984 ± 0.044
GGGGTGCCTG | 0.999 ± 0.039
GGGGTGGAGC | 1.05 ± 0.014
GGGGTGGATG | 0.997 ± 0.018
GGGGTGGCAG | 0.975 ± 0.027
GGGGTGGCGA | 1.01 ± 0.045
GGGGTGGGCA | 1 ± 0.011
GGGGTGGGGT | 1 ± 0.052
GGGGTGTAAG | 0.992 ± 0.02
GGGGTGTAGT | 0.9854 ± 0.0053
GGGGTGTCTG | 0.9792 ± 0.0074
GGGGTGTGGC | 0.977 ± 0.046
GGGGTGTTAT | 0.955 ± 0.037
GGGGTGTTTT | 0.999 ± 0.048

Sequence | switch fluorescence ratio
GGGGTTAACG | 0.996 ± 0.031
GGGGTTAAGA | 1.01 ± 0.08
GGGGTTAATG | 0.998 ± 0.028
GGGGTTAATT | 1 ± 0.026
GGGGTTAGTG | 0.971 ± 0.034
GGGGTTCATG | 0.9675 ± 0.006
GGGGTTCGAA | 0.963 ± 0.016
GGGGTTGATG | 0.965 ± 0.022
GGGGTTGGTG | 0.989 ± 0.02
GGGGTTGTTT | 1.03 ± 0.08
GGGGTTTAAG | 0.969 ± 0.025
GGGGTTTACG | 1 ± 0.039
GGGGTTTAGG | 0.989 ± 0.026
GGGGTTTCAG | 1.02 ± 0.012
GGGGTTTGCA | 0.978 ± 0.046
GGGGTTTTGC | 0.985 ± 0.017
GGGGTTTTTC | 0.9786 ± 0.0085
GGGTAAAACT | 1.0166 ± 0.00025
GGGTAAAGTG | 0.9928 ± 0.0032
GGGTAAATAT | 0.98 ± 0.014
GGGTAAATGG | 1.02 ± 0.034
GGGTAAATGT | 0.9908 ± 0.0024
GGGTAAGGAC | 1.03 ± 0.014

Sequence | switch fluorescence ratio
GGGTAATAAG | 0.993 ± 0.035
GGGTAATCTT | 0.991 ± 0.028
GGGTACAGGG | 1 ± 0.02
GGGTACATTT | 0.987 ± 0.016
GGGTACGAG | 1.018 ± 0.01
GGGTACGCAG | 1.01 ± 0.029
GGGTACGCGA | 1.222 ± 0.0097
GGGTACGGGG | 1 ± 0.03
GGGTACTGGT | 1 ± 0.026
GGGTACTTGT | 0.999 ± 0.022
GGGTAGGGAT | 1 ± 0.032
GGGTAGGGCG | 1.03 ± 0.14
GGGTAGTCCG | 0.9937 ± 0.007
GGGTAGTTTT | 0.989 ± 0.018
GGGTATAACA | 1.004 ± 0.0083
GGGTATAAGG | 0.989 ± 0.026
GGGTATAGCC | 0.9807 ± 0.0066
GGGTATCA | 0.954 ± 0.021
GGGTATCACT | 0.992 ± 0.016
